Source: IntAct's records for PubMed 17948060

B1: G1/S-specific cyclin-D1 (Mus musculus), P25322 (parent)
chain: MEHQLLCCEVETIRRAYPDTNLLNDRVLRAMLKTEETCAPSVSYFKCVQKEIVPSMRKIVATWMLEVCEEQKCEEEVFPLAMNYLDRFLSLEPLKKSRLQLLGATCMFVASKMKETIPLTAEKLCIYTDNSIRPEELLQMELLLVNKLKWNLAAMTPHDFIEHFLSKMPEADENKQTIRKHAQTFVALCATDVKFISNPPSMVAAGSVVAAMQGLNLGSPNNFLSCYRTTHFLSRVIKCDPDCLRACQEQIEALLESSLRQAQQNVDPKATEEEGEVEEEAGLACTPTDVRDVDI
partner: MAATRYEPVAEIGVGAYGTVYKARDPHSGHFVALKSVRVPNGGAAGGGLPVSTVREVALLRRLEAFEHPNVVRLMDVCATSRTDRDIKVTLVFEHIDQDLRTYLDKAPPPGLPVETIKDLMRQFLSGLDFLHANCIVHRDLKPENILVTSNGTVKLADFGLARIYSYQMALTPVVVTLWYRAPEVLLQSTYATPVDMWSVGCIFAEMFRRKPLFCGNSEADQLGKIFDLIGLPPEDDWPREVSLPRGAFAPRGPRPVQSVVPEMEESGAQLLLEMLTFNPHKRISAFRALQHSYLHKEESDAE

Variants of: B1
Details: with cdk4_mouse Cdk4, P30285

Row | Variant | effect of a mutation on the interaction
1 | MEHQLLCCEVETIRRAYPDTNLLNDRVLRAMLKTEETCAPSVSYFKCVQKEIVPSMRKIVATWMLEVCEEQKCEEEVFPLAMNYLDRFLSLEPLKKSRLQLLGATCMFVASKMAETIPLTAEKLCIYTDNSIRPEELLQMELLLVNKLKWNLAAMTPHDFIEHFLSKMPEADENKQTIRKHAQTFVALCATDVKFISNPPSMVAAGSVVAAMQGLNLGSPNNFLSCYRTTHFLSRVIKCDPDCLRACQEQIEALLESSLRQAQQNVDPKATEEEGEVEEEAGLACTPTDVRDVDI [K114A] | disrupting interaction
